Data from publication PMC9046087, “Structural basis of tethered agonism of the adhesion GPCRs ADGRD1 and ADGRF1” (Nature, 2022).

B1: V585^1.36bA (protein, UniProt Q5T601 20-910, looked up, variant V585A)
Adhesion G-protein coupled …: GFLGKNDGIKTKKELIVNKKKHLGPVEEYQLLLQVTYRDSKEKRDLRNFLKLLKPPLLWSHGLIRIIRAKATTDCNSLNGVLQCTCEDSYTWFPPSCLDPQNCYLHTAGALPSCECHLNNLSQSVNFCERTKIWGTFKINERFTNDLLNSSSAIYSKYANGIEIQLKKAYERIQGFESVQVTQFRNGSIVAGYEVVGSSSASELLSAIEHVAEKAKTALHKLFPLEDGSFRVFGKAQCNDIVFGFGSKDDEYTLPCSSGYRGNITAKCESSGWQVIRETCVLSLLEELNKNFSMIVGNATEAAVSSFVQNLSVIIRQNPSTTVGNLASVVSILSNISSLSLASHFRVSNSTMEDVISIADNILNSASVTNWTVLLREEKYASSRLLETLENISTLVPPTALPLNFSRKFIDWKGIPVNKSQLKRGYSYQIKMCPQNTSIPIRGRVLIGSDQFQRSLPETIISMASLTLGNILPVSKNGNAQVNGPVISTVIQNYSINEVFLFFSKIESNLSQPHCVFWDFSHLQWNDAGCHLVNETQDIVTCQCTHLTSFSILMSPFVPSTIFPVAKWITYVGLGISIGSLILCLIIEALFWKQIKKSQTSHTRRICMVNIALSLLIADVWFIVGATVDTTVNPSGVCTAAVFFTHFFYLSLFFWMLMLGILLAYRIILVFHHMAQHLMMAVGFCLGYGCPLIISVITIAVTQPSNTYKRKDVCWLNWSNGSKPLLAFVVPALAIVAVNFVVVLLVLTKLWRPTVGERLSRDDKATIIRVGKSLLILTPLLGLTWGFGIGTIVDSQNLAWHVIFALLNAFQGFFILCFGILLDSKLRQLLFNKLSALSSWKQTEKQNSSDLSAKPKFSKPFNPLQNKGHYAFSHTGDSSDNIMLTQFVSNE
B2: T589^1.40bA (protein, UniProt Q5T601 20-910, looked up, variant T589A)
Adhesion G-protein coupled …: GFLGKNDGIKTKKELIVNKKKHLGPVEEYQLLLQVTYRDSKEKRDLRNFLKLLKPPLLWSHGLIRIIRAKATTDCNSLNGVLQCTCEDSYTWFPPSCLDPQNCYLHTAGALPSCECHLNNLSQSVNFCERTKIWGTFKINERFTNDLLNSSSAIYSKYANGIEIQLKKAYERIQGFESVQVTQFRNGSIVAGYEVVGSSSASELLSAIEHVAEKAKTALHKLFPLEDGSFRVFGKAQCNDIVFGFGSKDDEYTLPCSSGYRGNITAKCESSGWQVIRETCVLSLLEELNKNFSMIVGNATEAAVSSFVQNLSVIIRQNPSTTVGNLASVVSILSNISSLSLASHFRVSNSTMEDVISIADNILNSASVTNWTVLLREEKYASSRLLETLENISTLVPPTALPLNFSRKFIDWKGIPVNKSQLKRGYSYQIKMCPQNTSIPIRGRVLIGSDQFQRSLPETIISMASLTLGNILPVSKNGNAQVNGPVISTVIQNYSINEVFLFFSKIESNLSQPHCVFWDFSHLQWNDAGCHLVNETQDIVTCQCTHLTSFSILMSPFVPSTIFPVVKWIAYVGLGISIGSLILCLIIEALFWKQIKKSQTSHTRRICMVNIALSLLIADVWFIVGATVDTTVNPSGVCTAAVFFTHFFYLSLFFWMLMLGILLAYRIILVFHHMAQHLMMAVGFCLGYGCPLIISVITIAVTQPSNTYKRKDVCWLNWSNGSKPLLAFVVPALAIVAVNFVVVLLVLTKLWRPTVGERLSRDDKATIIRVGKSLLILTPLLGLTWGFGIGTIVDSQNLAWHVIFALLNAFQGFFILCFGILLDSKLRQLLFNKLSALSSWKQTEKQNSSDLSAKPKFSKPFNPLQNKGHYAFSHTGDSSDNIMLTQFVSNE
B3: Y668^3.40bA (protein, UniProt Q5T601 20-910, looked up, variant Y668A)
Adhesion G-protein coupled …: GFLGKNDGIKTKKELIVNKKKHLGPVEEYQLLLQVTYRDSKEKRDLRNFLKLLKPPLLWSHGLIRIIRAKATTDCNSLNGVLQCTCEDSYTWFPPSCLDPQNCYLHTAGALPSCECHLNNLSQSVNFCERTKIWGTFKINERFTNDLLNSSSAIYSKYANGIEIQLKKAYERIQGFESVQVTQFRNGSIVAGYEVVGSSSASELLSAIEHVAEKAKTALHKLFPLEDGSFRVFGKAQCNDIVFGFGSKDDEYTLPCSSGYRGNITAKCESSGWQVIRETCVLSLLEELNKNFSMIVGNATEAAVSSFVQNLSVIIRQNPSTTVGNLASVVSILSNISSLSLASHFRVSNSTMEDVISIADNILNSASVTNWTVLLREEKYASSRLLETLENISTLVPPTALPLNFSRKFIDWKGIPVNKSQLKRGYSYQIKMCPQNTSIPIRGRVLIGSDQFQRSLPETIISMASLTLGNILPVSKNGNAQVNGPVISTVIQNYSINEVFLFFSKIESNLSQPHCVFWDFSHLQWNDAGCHLVNETQDIVTCQCTHLTSFSILMSPFVPSTIFPVVKWITYVGLGISIGSLILCLIIEALFWKQIKKSQTSHTRRICMVNIALSLLIADVWFIVGATVDTTVNPSGVCTAAVFFTHFFALSLFFWMLMLGILLAYRIILVFHHMAQHLMMAVGFCLGYGCPLIISVITIAVTQPSNTYKRKDVCWLNWSNGSKPLLAFVVPALAIVAVNFVVVLLVLTKLWRPTVGERLSRDDKATIIRVGKSLLILTPLLGLTWGFGIGTIVDSQNLAWHVIFALLNAFQGFFILCFGILLDSKLRQLLFNKLSALSSWKQTEKQNSSDLSAKPKFSKPFNPLQNKGHYAFSHTGDSSDNIMLTQFVSNE
B4: F641^2.64bA (protein, UniProt Q5T601 20-910, looked up, variant F641A)
Adhesion G-protein coupled …: GFLGKNDGIKTKKELIVNKKKHLGPVEEYQLLLQVTYRDSKEKRDLRNFLKLLKPPLLWSHGLIRIIRAKATTDCNSLNGVLQCTCEDSYTWFPPSCLDPQNCYLHTAGALPSCECHLNNLSQSVNFCERTKIWGTFKINERFTNDLLNSSSAIYSKYANGIEIQLKKAYERIQGFESVQVTQFRNGSIVAGYEVVGSSSASELLSAIEHVAEKAKTALHKLFPLEDGSFRVFGKAQCNDIVFGFGSKDDEYTLPCSSGYRGNITAKCESSGWQVIRETCVLSLLEELNKNFSMIVGNATEAAVSSFVQNLSVIIRQNPSTTVGNLASVVSILSNISSLSLASHFRVSNSTMEDVISIADNILNSASVTNWTVLLREEKYASSRLLETLENISTLVPPTALPLNFSRKFIDWKGIPVNKSQLKRGYSYQIKMCPQNTSIPIRGRVLIGSDQFQRSLPETIISMASLTLGNILPVSKNGNAQVNGPVISTVIQNYSINEVFLFFSKIESNLSQPHCVFWDFSHLQWNDAGCHLVNETQDIVTCQCTHLTSFSILMSPFVPSTIFPVVKWITYVGLGISIGSLILCLIIEALFWKQIKKSQTSHTRRICMVNIALSLLIADVWAIVGATVDTTVNPSGVCTAAVFFTHFFYLSLFFWMLMLGILLAYRIILVFHHMAQHLMMAVGFCLGYGCPLIISVITIAVTQPSNTYKRKDVCWLNWSNGSKPLLAFVVPALAIVAVNFVVVLLVLTKLWRPTVGERLSRDDKATIIRVGKSLLILTPLLGLTWGFGIGTIVDSQNLAWHVIFALLNAFQGFFILCFGILLDSKLRQLLFNKLSALSSWKQTEKQNSSDLSAKPKFSKPFNPLQNKGHYAFSHTGDSSDNIMLTQFVSNE
B5: L593^1.47bA (protein, UniProt Q5T601 20-910, looked up, variant L593A)
Adhesion G-protein coupled …: GFLGKNDGIKTKKELIVNKKKHLGPVEEYQLLLQVTYRDSKEKRDLRNFLKLLKPPLLWSHGLIRIIRAKATTDCNSLNGVLQCTCEDSYTWFPPSCLDPQNCYLHTAGALPSCECHLNNLSQSVNFCERTKIWGTFKINERFTNDLLNSSSAIYSKYANGIEIQLKKAYERIQGFESVQVTQFRNGSIVAGYEVVGSSSASELLSAIEHVAEKAKTALHKLFPLEDGSFRVFGKAQCNDIVFGFGSKDDEYTLPCSSGYRGNITAKCESSGWQVIRETCVLSLLEELNKNFSMIVGNATEAAVSSFVQNLSVIIRQNPSTTVGNLASVVSILSNISSLSLASHFRVSNSTMEDVISIADNILNSASVTNWTVLLREEKYASSRLLETLENISTLVPPTALPLNFSRKFIDWKGIPVNKSQLKRGYSYQIKMCPQNTSIPIRGRVLIGSDQFQRSLPETIISMASLTLGNILPVSKNGNAQVNGPVISTVIQNYSINEVFLFFSKIESNLSQPHCVFWDFSHLQWNDAGCHLVNETQDIVTCQCTHLTSFSILMSPFVPSTIFPVVKWITYVGAGISIGSLILCLIIEALFWKQIKKSQTSHTRRICMVNIALSLLIADVWFIVGATVDTTVNPSGVCTAAVFFTHFFYLSLFFWMLMLGILLAYRIILVFHHMAQHLMMAVGFCLGYGCPLIISVITIAVTQPSNTYKRKDVCWLNWSNGSKPLLAFVVPALAIVAVNFVVVLLVLTKLWRPTVGERLSRDDKATIIRVGKSLLILTPLLGLTWGFGIGTIVDSQNLAWHVIFALLNAFQGFFILCFGILLDSKLRQLLFNKLSALSSWKQTEKQNSSDLSAKPKFSKPFNPLQNKGHYAFSHTGDSSDNIMLTQFVSNE
B6: W734^ECL2A (protein, UniProt Q5T601 20-910, looked up, variant W734A)
Adhesion G-protein coupled …: GFLGKNDGIKTKKELIVNKKKHLGPVEEYQLLLQVTYRDSKEKRDLRNFLKLLKPPLLWSHGLIRIIRAKATTDCNSLNGVLQCTCEDSYTWFPPSCLDPQNCYLHTAGALPSCECHLNNLSQSVNFCERTKIWGTFKINERFTNDLLNSSSAIYSKYANGIEIQLKKAYERIQGFESVQVTQFRNGSIVAGYEVVGSSSASELLSAIEHVAEKAKTALHKLFPLEDGSFRVFGKAQCNDIVFGFGSKDDEYTLPCSSGYRGNITAKCESSGWQVIRETCVLSLLEELNKNFSMIVGNATEAAVSSFVQNLSVIIRQNPSTTVGNLASVVSILSNISSLSLASHFRVSNSTMEDVISIADNILNSASVTNWTVLLREEKYASSRLLETLENISTLVPPTALPLNFSRKFIDWKGIPVNKSQLKRGYSYQIKMCPQNTSIPIRGRVLIGSDQFQRSLPETIISMASLTLGNILPVSKNGNAQVNGPVISTVIQNYSINEVFLFFSKIESNLSQPHCVFWDFSHLQWNDAGCHLVNETQDIVTCQCTHLTSFSILMSPFVPSTIFPVVKWITYVGLGISIGSLILCLIIEALFWKQIKKSQTSHTRRICMVNIALSLLIADVWFIVGATVDTTVNPSGVCTAAVFFTHFFYLSLFFWMLMLGILLAYRIILVFHHMAQHLMMAVGFCLGYGCPLIISVITIAVTQPSNTYKRKDVCALNWSNGSKPLLAFVVPALAIVAVNFVVVLLVLTKLWRPTVGERLSRDDKATIIRVGKSLLILTPLLGLTWGFGIGTIVDSQNLAWHVIFALLNAFQGFFILCFGILLDSKLRQLLFNKLSALSSWKQTEKQNSSDLSAKPKFSKPFNPLQNKGHYAFSHTGDSSDNIMLTQFVSNE

What follows are molecules tested on ADGRF1 (assay: Cell-surface expression by flow cytometry, ADGRF1). Conditions: ADGRF1 constructs (pF1 Gi part of table), anti-Flag antibody, three independent measurements in duplicate.
Format: cell-based, human
Protocol: The wild-type ADGRD1 and ADGRF1 and mutants used in functional studies were constructed into a pTT5 vector with a Flag tag at the N terminus for receptor expression measurement. The basal activity of ADGRD1 and ADGRF1 in mediating Gs signalling was measured by a cAMP accumulation assay using a LANCE Ultra cAMP detection kit (PerkinElmer) following the manufacturer’s instruction. In brief, 2 ml HEK293F cells (Invitrogen; cells were routinely tested for mycoplasma contamination) at a density of 1.2 × 10^6 cells per ml were transiently transfected with 2,000 ng plasmid of the wild-type or mutant receptor and cultured at 37 °C for 48 h with 5% CO2 atmosphere in a shaker shaking at 220 rpm. After collection, the cell-surface expression of the receptors was measured by incubating 10 μl cells with 15 μl monoclonal anti-Flag M2-FITC antibody (Sigma; 1:120 diluted in TBS supplemented with 4% BSA and 20% viability staining solution 7-AAD (Invitrogen)) at 4 °C for 20 min. After incubation, 175 μl TBS buffer was added and the fluorescent signal was measured using a flow cytometry reader (Guava easyCyte HT, Millipore).
For B1, the “Cell-surface expression (% of WT)” value was 91 ± 21 % of WT.
In the case of B2, the “Cell-surface expression (% of WT)” value is reported as 83 ± 3 % of WT.
In the case of B3, the “Cell-surface expression (% of WT)” value is reported as 67 ± 1 % of WT.
With B4 the “Cell-surface expression (% of WT)” value was 82 ± 19 % of WT.
For B5, the “Cell-surface expression (% of WT)” value was 90 ± 6 % of WT.
For B6, the “Cell-surface expression (% of WT)” value was 87 ± 1 % of WT.
